Source: patent US20180244725

Molecular target: T1, R5 peptide
T1 chain: SSKKSGSYSGSKGSKRRIL

B1: N-myrisotyltransferase 1 (NMT1) (protein)
chain: MADESETAVKPPAPPLPQMMEGNGNGHEHCSDCENEEDNSYNRGGLSPANDTGAKKKKKKQKKKKEKGSETDSAQDQPVKMNSLPAERIQEIQKAIELFSVGQGPAKTMEEASKRSYQFWDTQPVPKLGEVVNTHGPVEPDKDNIRQEPYTLPQGFTWDALDLGDRGVLKELYTLLNENYVEDDDNMFRFDYSPEFLLWALRPPGWLPQWHCGVRVVSSRKLVGFISAIPANIHIYDTEKKMVEINFLCVHKKLRSKRVAPVLIREITRRVHLEGIFQAVYTAGVVLPKPVGTCRYWHRSLNPRKLIEVKFSHLSRNMTMQRTMKLYRLPETPKTAGLRPMETKDIPVVHQLLTRYLKQFHLTPVMSQEEVEHWFYPQENIIDTFVVENANGEVTDFLSFYTLPSTIMNHPTHKSLKAAYSFYNVHTQTPLLDLMSDALVLAKMKGFDVFNALDLMENKTFLEKLKFGIGDGNLQYYLYNWKCPSMGAEKVGLVLQ
  myristoylation of R5 (LC-MS time course): A time course showing the incorporation of one myristoyl group was determined by LC-MS
